We go through 97 variants from the supplement of paper PMC10567573.

Sequences and labels used below:
B1: USP39 (parent)
chain: TLSEAYIQIWKRRDNDETNQQGA
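Note: lentivirally expressed fusions sorted by FACS into six bins by GFP to DsRed ratio, PSI derived from sequencing read proportions per bin multiplied by bin number.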

The variants in the series derive from B1. Put plainly: protein stability index of a GFP-peptide fusion (GPS, HEK-293T) (PSI 1-6); higher = more stable. The conditions noted are these: c terminus: native.
As for TLSEAYIQIWKRRRNDETNQQGA [D14R], the protein stability index was 2.74. As to TLSEAYIQIWKRRWNDETNQQGA [D14W], the protein stability index is 1.94.

In the case of TLSEAYIQIWKRRINDETNQQGA [D14I], the protein stability index came to 2.6.

For the variant TLSEAYIQIWKRRHNDETNQQGA [D14H], the protein stability index was 2.19. The value for TLSEAYIQIWKRRPNDETNQQGA [D14P] was 2.37. The value for TLSEAYIQIWKRRKNDETNQQGA [D14K] was 2.67; that for TLSEAYIQIWKRRQNDETNQQGA [D14Q] was 2.12. The figure for TLSEAYIQIWKRRFNDETNQQGA [D14F] is 2; for TLSEAYIQIWKRRGNDETNQQGA [D14G] it is 2.06. Regarding TLSEAYIQIWKRRCNDETNQQGA [D14C], the protein stability index came to 2.08. For the variant TLSEAYIQIWKRRMNDETNQQGA [D14M], the protein stability index was 2.01. TLSEAYIQIWKRRANDETNQQGA [D14A]: the protein stability index amounted to 2.1. The value for TLSEAYIQIWKRRYNDETNQQGA [D14Y] was 1.9; that for TLSEAYIQIWKRRVNDETNQQGA [D14V] was 2.9. The value for TLSEAYIQIWKRRENDETNQQGA [D14E] was 2.07; that for TLSEAYIQIWKRRLNDETNQQGA [D14L] was 1.94; that for TLSEAYIQIWKRRTNDETNQQGA [D14T] was 2.39. The figure for TLSEAYIQIWKRRSNDETNQQGA [D14S] is 1.94; for TLSEAYIQIWKRRNNDETNQQGA [D14N] it is 1.71; for TLSEAYIQIWKRRDNDETNQGGA [Q21G] it is 2.52. On to TLSEAYIQIWKRRDNDETNQDGA [Q21D], for which the protein stability index was 2.74.

As to TLSEAYIQIWKRRDNDETNQIGA [Q21I], the protein stability index turned out to be 2.66. The figure for TLSEAYIQIWKRRDNDETNQEGA [Q21E] is 2.87; for TLSEAYIQIWKRRDNDETNQCGA [Q21C] it is 1.76.

For TLSEAYIQIWKRRDNDETNQMGA [Q21M], the protein stability index was determined as 1.8. The value for TLSEAYIQIWKRRDNDETNQLGA [Q21L] was 2.09; that for TLSEAYIQIWKRRDNDETNQFGA [Q21F] was 1.79. The value for TLSEAYIQIWKRRDNDETNQKGA [Q21K] was 3.59; that for TLSEAYIQIWKRRDNDETNQNGA [Q21N] was 3.81; that for TLSEAYIQIWKRRDNDETNQAGA [Q21A] was 2.96.

As to TLSEAYIQIWKRRDNDETNQHGA [Q21H], the protein stability index was found to be 2.05.

Consider TLSEAYIQIWKRRDNDETNKQGA [Q20K], for which the protein stability index was 2.14. Turning to TLSEAYIQIWKRRDNDETNAQGA [Q20A], the protein stability index is 2.51. Consider TLSEAYIQIWKRRDNDETNEQGA [Q20E], for which the protein stability index was 2.15.

On to TLSEAYIQIWKRRDNDETNHQGA [Q20H], for which the protein stability index was determined as 1.58.

Consider TLSEAYIQIWKRRDNDETNMQGA [Q20M], for which the protein stability index was 3.46. The figure for TLSEAYIQIWKRRDNDETNDQGA [Q20D] is 2.37. The value for TLSEAYIQIWKRRDNDETNNQGA [Q20N] was 3.41. TLSEAYIQIWKRRDNDETNPQGA [Q20P]: the protein stability index turned out to be 1. The value for TLSEAYIQIWKRRDNDETNSQGA [Q20S] was 4.26. With TLSEAYIQIWKRRDNDETNIQGA [Q20I], the protein stability index came to 1.74. The value for TLSEAYIQIWKRRDNDETNWQGA [Q20W] was 2.17; that for TLSEAYIQIWKRRDNDETNGQGA [Q20G] was 2.68.

Take TLSEAYIQIWKRRDNDETNCQGA [Q20C]: the protein stability index is 2.38. The figure for TLSEAYIQIWKRRDNDETNLQGA [Q20L] is 2.02; for TLSEAYIQIWKRRDNDETNVQGA [Q20V] it is 1.73; for TLSEAYIQIWKRRDNDETNYQGA [Q20Y] it is 2.4. The value for TLSEAYIQIWKRRDNDETNFQGA [Q20F] was 2.02; that for TLSEAYIQIWKRRDNDETNRQGA [Q20R] was 2.35; that for TLSEAYIQIWKRRDNDETNTQGA [Q20T] was 3.77. The figure for TLSEAYIQIWKRRDNDEINQQGA [T18I] is 3.17.

In the case of TLSEAYIQIWKRRDNDEANQQGA [T18A], the protein stability index came to 3.05.

On to TLSEAYIQIWKRRDNDEWNQQGA [T18W], for which the protein stability index is 2.11. The figure for TLSEAYIQIWKRRDNDEPNQQGA [T18P] is 1.87.

As for TLSEAYIQIWKRRDNDELNQQGA [T18L], the protein stability index turned out to be 2.06.

For TLSEAYIQIWKRRDNDEVNQQGA [T18V], the protein stability index was 2.56. TLSEAYIQIWKRRDNDECNQQGA [T18C]: the protein stability index worked out at 1.69. On to TLSEAYIQIWKRRDNDEKNQQGA [T18K], for which the protein stability index was 3.63. The value for TLSEAYIQIWKRRDNDESNQQGA [T18S] was 1.89.

For TLSEAYIQIWKRRDNDENNQQGA [T18N], the protein stability index was 2.41. The figure for TLSEAYIQIWKRRDNDEMNQQGA [T18M] is 1.43. The figure for TLSEAYIQIWKRRDNDEHNQQGA [T18H] is 3.19; for TLSEAYIQIWKRRDNDEENQQGA [T18E] it is 2.56; for TLSEAYIQIWKRRDNDEQNQQGA [T18Q] it is 1.61.

With TLSEAYIQIWKRRDNDEYNQQGA [T18Y], the protein stability index was determined as 2.51. The figure for TLSEAYIQIWKRRDNDERNQQGA [T18R] is 2.54; for TLSEAYIQIWKRRDNDEFNQQGA [T18F] it is 1.73; for TLSEAYIQIWKRRDNDEGNQQGA [T18G] it is 2.57.

Consider TLSEAYIQIWKRRDNDEDNQQGA [T18D], for which the protein stability index came to 1.95. Turning to TLSEAYIQIWKRPDNDETNQQGA [R13P], the protein stability index was found to be 2.46.

With TLSEAYIQIWKRYDNDETNQQGA [R13Y], the protein stability index was found to be 1.56.

In the case of TLSEAYIQIWKRNDNDETNQQGA [R13N], the protein stability index was found to be 2.37.

TLSEAYIQIWKRIDNDETNQQGA [R13I]: the protein stability index stood at 2.52. As for TLSEAYIQIWKRGDNDETNQQGA [R13G], the protein stability index was 1.93. The figure for TLSEAYIQIWKRDDNDETNQQGA [R13D] is 3.22; for TLSEAYIQIWKRLDNDETNQQGA [R13L] it is 1.84. On to TLSEAYIQIWKRKDNDETNQQGA [R13K], for which the protein stability index is 2.05.

As for TLSEAYIQIWKRQDNDETNQQGA [R13Q], the protein stability index is 4.3. The value for TLSEAYIQIWKRMDNDETNQQGA [R13M] was 2.14; that for TLSEAYIQIWKRTDNDETNQQGA [R13T] was 2.36; that for TLSEAYIQIWKRSDNDETNQQGA [R13S] was 2.07.

For the variant TLSEAYIQIWKRFDNDETNQQGA [R13F], the protein stability index came to 1.48.

Take TLSEAYIQIWKREDNDETNQQGA [R13E]: the protein stability index amounted to 2.63.

Consider TLSEAYIQIWKRCDNDETNQQGA [R13C], for which the protein stability index was 2.06. The value for TLSEAYIQIWKRVDNDETNQQGA [R13V] was 1.97. On to TLSEAYIQIWKRHDNDETNQQGA [R13H], for which the protein stability index stood at 2.43.

Take TLSEAYIQIWHRRDNDETNQQGA [K11H]: the protein stability index was 1.88.

For TLSEAYIQIWIRRDNDETNQQGA [K11I], the protein stability index turned out to be 2.21. With TLSEAYIQIWNRRDNDETNQQGA [K11N], the protein stability index was determined as 2.41. Regarding TLSEAYIQIWTRRDNDETNQQGA [K11T], the protein stability index is 3.14. The value for TLSEAYIQIWRRRDNDETNQQGA [K11R] was 1.86. The value for TLSEAYIQIWMRRDNDETNQQGA [K11M] was 2.63; that for TLSEAYIQIWCRRDNDETNQQGA [K11C] was 3.3. The figure for TLSEAYIQIWVRRDNDETNQQGA [K11V] is 1.67; for TLSEAYIQIWGRRDNDETNQQGA [K11G] it is 2.39; for TLSEAYIQIWQRRDNDETNQQGA [K11Q] it is 1.78. In the case of TLSEAYIQIWSRRDNDETNQQGA [K11S], the protein stability index is 3.78.
